Our source for the percent of cellular FUS cross-linked to RNA Pol II, percent of RNA Pol II cross-linked to FUS (large particles, >70 nm) and percent of RNA Pol II cross-linked to FUS (whole cell lysate) values is publication PMC9275567.

Experiment [1] concerns the target RNA polymerase II (RNA Pol II) (human (endogenous in HeLa-Kyoto)) (UniProt P24928). The experiment can be described thus: cross-linking + co-IP.
Experiment [2] deals with FUsed in Sarcoma (FUS) in HeLa-Kyoto cells (human (endogenous in HeLa-Kyoto)) (UniProt P35637). The experiment can be described thus: cross-linking + co-IP.

Consider “FUsed in Sarcoma (FUS) in HeLa-Kyoto cells (from UniProt P35637 1-526) (natural protein)”, for which, in experiment [1], the percent of cellular FUS cross-linked to RNA Pol II stood at 21%.

Take “RNA polymerase II (RNA Pol II) (from UniProt P24928 1-1970) (complex)”: in experiment [2], the percent of RNA Pol II cross-linked to FUS (large particles, >70 nm) worked out at 69% and the percent of RNA Pol II cross-linked to FUS (whole cell lysate) came out at 87%.
